In patent US11471494B2, “Microorganisms programmed to produce immune modulators and anti-cancer therapeutics in tumor cells” (Synlogic Operating Company, Inc., priority 2017, dated 2022):
Each block holds one molecule with its values, some of them ahead of it.

Experiments:
[1] = target: T1, murine CD47 on CT26 cells (Mus musculus, UniProt Q61735); test: Competition assay on CT26 cells (flow cytometry); type: cell-based; conditions: secreted FD6x2sirpα or FD6sirpαhIgG4
T1 construct: CT26 is a mouse colon carcinoma cell line which expresses CD47 on its cell surface; endogenous in cells; host or cells: CT26 mouse colon carcinoma cells
T1 sequence (Q61735 19-303): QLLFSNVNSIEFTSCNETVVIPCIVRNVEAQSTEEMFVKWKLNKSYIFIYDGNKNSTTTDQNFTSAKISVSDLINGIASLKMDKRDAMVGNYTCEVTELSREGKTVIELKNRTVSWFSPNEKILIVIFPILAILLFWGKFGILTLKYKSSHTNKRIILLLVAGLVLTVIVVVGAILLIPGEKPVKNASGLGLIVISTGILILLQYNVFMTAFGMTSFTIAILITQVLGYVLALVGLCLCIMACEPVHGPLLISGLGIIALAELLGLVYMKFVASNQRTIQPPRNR
Protocol: Next, a competition assay was conducted to determine whether the murine SIRPα secreted by the genetically engineered bacteria could compete with the binding of a recombinant mSIRPα or an anti-CD47 antibody to murine CD47 on CT26 cells. CT26 cells were grown and flow cytometry protocol was conducted essentially as described above except that recombinant SIRPα (Rndsystems) or an anti-CD47 antibody (Biolegend) was added during the incubation of the secreted FD6×2sirpα or FD6sirpαhIgG4. FIG. 29 and FIG. 30 show the results of the competition with recombinant SIRPalpha and anti-CD47 antibody, respectively.

anti-mCD40L antibody = test: CD40 ELISA binding assay of supernatants, detection by antibody; conditions: clarified supernatant
[2] = CD40 ELISA binding assay, control coatings; conditions: clarified supernatant
mCD40 = target: T2, mCD40 (Mus musculus, UniProt P27512); test: CD40 ELISA binding assay of supernatants; conditions: clarified supernatant
T2 sequence (P27512 20-289): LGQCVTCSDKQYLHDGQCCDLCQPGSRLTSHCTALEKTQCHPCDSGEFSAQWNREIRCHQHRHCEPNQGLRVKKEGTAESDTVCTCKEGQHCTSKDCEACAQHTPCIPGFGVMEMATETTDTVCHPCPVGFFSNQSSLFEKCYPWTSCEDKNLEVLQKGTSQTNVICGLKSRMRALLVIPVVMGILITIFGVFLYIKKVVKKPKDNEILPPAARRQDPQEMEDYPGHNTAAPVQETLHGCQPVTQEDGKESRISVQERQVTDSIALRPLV

CD47 on mouse CT26 cells = target: T3, CD47 on mouse CT26 cells (Mus musculus, UniProt Q61735); test: flow cytometric analysis of CD47 expressing CT26 cells incubated with strain supernatants; type: binding
T3 construct: CT26 is a mouse colon carcinoma cell line which expresses CD47 on its cell surface; endogenous in cells; host or cells: CT26 mouse colon carcinoma cells
T3 sequence (Q61735 19-303): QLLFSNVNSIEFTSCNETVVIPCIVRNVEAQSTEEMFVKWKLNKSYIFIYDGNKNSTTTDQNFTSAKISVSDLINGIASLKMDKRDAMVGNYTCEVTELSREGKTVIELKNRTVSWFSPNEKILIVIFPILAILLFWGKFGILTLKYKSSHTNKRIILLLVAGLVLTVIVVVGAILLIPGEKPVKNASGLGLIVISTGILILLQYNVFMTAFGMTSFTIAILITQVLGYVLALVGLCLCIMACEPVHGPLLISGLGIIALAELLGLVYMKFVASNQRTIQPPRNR
Description: FIG. 29 depicts a diagram of a flow cytometric analysis of CT26 cells.
FIG. 30 depicts a diagram of a flow cytometric analysis of CT26 cells.

Competition with secreted SIRPalpha for binding to CD47 on CT26 cells [1]: able to compete
B1: recombinant SIRPalpha: recombinant SIRPα (Rndsystems) (protein)
chain: KELKVTQPEKSVSVAAGDSTVLNCTLTSLLPVGPIRWYRGVGPSRLLIYSFAGEYVPRIRNVSDTTKRNNMDFSIRISNVTPADAGIYYCVKFQKGSSEPDTEIQSGGGTEVYVLAKPSPPEVSGPADRGIPDQKVNFTCKSHGFSPRNITLKWFKDGQELHPLETTVNPSGKNVSYNISSTVRVVLNSMDVNSKVICEVAHITLDRSPLRGIANLSNFIRVSPTVKVTQQSPTSMNQVNLTCRAERFYPEDLQLIWLENGNVSRNDTPKNLTKNTDGTYNYTSLFLVNSSAHREDVVFTCQVKHDQQPAITRNHTVLGFAHSSDQGSMQTFPDNNATHNWN

ELISA signal, coating Anti-mCD40L (anti-mCD40L antibody): 0.394 | ELISA signal, coating IgG [2]: 0.052 | ELISA signal, coating PBS [2]: 0.049 | ELISA signal, coating mCD40 (mCD40): 0.231
B2: Secreted CD40-L1: extracellular portion of murine CD40L secreted by SYN3366, in clarified supernatant (protein)
chain: HRRLDKVEEEVNLHEDFVFIKKLKRCNKGEGSLSLLNCEEMRRQFEDLVKDITLNKEEKKENSFEMQRGDEDPQIAAHVVSEANSNAASVLQWAKKGYYTMKSNLVMLENGKQLTVKREGLYYVYTQVTFCSNREPSSQRPFIVGLWLKPSSGSERILLKAANTHSSSQLCEQQSVHLGGVFELQAGASVFVNVTEASQVIHRVGFSSFGLLKL
modifications: left off: small tags and cut ends
notes: extracellular portion of murine CD40L secreted by SYN3366, in clarified supernatant

B3: murine SIRPalpha: tet-inducible murine SIRPalpha secreted from an E. coli Nissle strain (protein, UniProt P97797 32-513, looked up)
Tyrosine-protein phosphatase …: KELKVTQPEKSVSVAAGDSTVLNCTLTSLLPVGPIRWYRGVGPSRLLIYSFAGEYVPRIRNVSDTTKRNNMDFSIRISNVTPADAGIYYCVKFQKGSSEPDTEIQSGGGTEVYVLAKPSPPEVSGPADRGIPDQKVNFTCKSHGFSPRNITLKWFKDGQELHPLETTVNPSGKNVSYNISSTVRVVLNSMDVNSKVICEVAHITLDRSPLRGIANLSNFIRVSPTVKVTQQSPTSMNQVNLTCRAERFYPEDLQLIWLENGNVSRNDTPKNLTKNTDGTYNYTSLFLVNSSAHREDVVFTCQVKHDQQPAITRNHTVLGFAHSSDQGSMQTFPDNNATHNWNVFIGVGVACALLVVLLMAALYLLRIKQKKAKGSTSSTRLHEPEKNAREITQVQSLIQDTNDINDITYADLNLPKEKKPAPRAPEPNNHTEYASIETGKVPRPEDTLTYADLDMVHLSRAQPAPKPEPSFSEYASVQVQRK
competition of binding to CD47 on CT26 cells by recombinant SIRPalpha (CD47 on mouse CT26 cells; FIG. 29): recombinant SIRPalpha can compete with the binding | competition of binding to CD47 on CT26 cells by anti-CD47 antibody (CD47 on mouse CT26 cells; FIG. 30): the antibody can compete with the binding
